Measurements: paper PMC4002474, “Secretoglobin 1A1 and 1A1A Differentially Regulate Neutrophil Reactive Oxygen Species Production, Phagocytosis and Extracellular Trap Formation” (PLoS ONE, 2014)
One block for each molecule: values may come before it.

Experiments:
[1] = target: equine recombinant SCGB 1A1A (horse (E. caballus)); experiment: non-reducing SDS-PAGE; purified recombinant protein run on SDS-PAGE in non-reducing conditions; dimers and monomers confirmed by Western blot under denaturing and mild reducing conditions
[2] = target: the molecule itself; experiment: as above

stoichiometry N [1]: 2
Molecule: equine recombinant SCGB 1A1A (natural protein)

B1: equine recombinant SCGB 1A1 (secretoglobin family 1A member 1) (natural protein, horse (E. caballus), UniProt Q8MKG2 22-91, looked up)
chain: EICQSFADIIQGLFLGTPASFEAAVEPFKPDADMKAATTQLKTLVDFLPKNTKDSILKLMDKIAKSPLCA
notes: SCGB 1A1 of the horse (E. caballus), mature protein without the signal peptide, cDNA from equine lung, 100% identical to NCBI JQ906260.1; Cloned in pMAL-c5X, said to add no vector-derived residues after Factor Xa cleavage; Disulfide-dependent homodimer; also called club (Clara) cell secretory protein; CCSP; source: E. coli BL21 (NEB Express), purified (amylose column, Factor Xa, FPLC SuperDex …)
stoichiometry N [2]: 2
